The record followed here is US20260176336A1.

This test concerns the target human LTBR endogenously expressed on cells (HepG2, A549, A375, HCC1187, RPMI-7951, primary human breast CAFs) (human) (UniProt P36941). The test can be described thus: cell-based or functional assay.

Sequence of human LTBR endogenously expressed on cells (HepG2, A549, A375, HCC1187, RPMI-7951, primary human breast CAFs) (human) (P36941 31-435): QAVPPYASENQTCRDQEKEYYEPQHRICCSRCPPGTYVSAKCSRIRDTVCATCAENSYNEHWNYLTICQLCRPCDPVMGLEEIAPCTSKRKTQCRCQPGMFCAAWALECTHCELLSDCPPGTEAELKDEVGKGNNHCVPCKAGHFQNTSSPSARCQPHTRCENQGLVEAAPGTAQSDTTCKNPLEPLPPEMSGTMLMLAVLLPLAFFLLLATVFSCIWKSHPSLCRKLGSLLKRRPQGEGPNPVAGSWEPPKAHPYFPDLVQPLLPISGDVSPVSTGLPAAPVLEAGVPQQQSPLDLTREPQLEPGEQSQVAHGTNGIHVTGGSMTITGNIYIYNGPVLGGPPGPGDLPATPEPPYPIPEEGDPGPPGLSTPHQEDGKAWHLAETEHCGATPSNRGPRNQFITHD

B1: CBE-11 (antibody, from another filing, human IgG1, V domains shown)
VH: EVQLVESGGGLVKPGGSLRLSCAASGFTFSDYYMYWFRQAPGKGLEWVATISDGGSYTYYPDSVKGRFTISRDNAKNSLYLQMSSLRAEDTAVYYCAREENGNFYYFDYWGQGTTVTVSS
VL: DIQMTQSPSSLSASVGDRVTITCKAGQDIKSYLSWYQQKPGKAPKLLIYYATRLADGVPSRFSGSGSGTDYTLTISSLQPEDFATYYCLQHGESPWTFGGGTKLEIKR
B1: the CCL19 upregulation, HCC1187:CAF Co-culture EC50 turned out to be 0.26 nM; the CCL19 upregulation, HCC1187 Monoculture EC50 worked out at 0.23 nM; the HCC1187 monoculture assay CCL19 read-out EC50 came to 0.239 nM; the HCC-1187:RPMI7951 (cis-activation) co-culture assay CCL5 read-out EC50 amounted to 0.13 nM. The HCC-1187:RPMI7951 (trans-activation) co-culture assay, CCL19 Read-out EC50 is 0.084 nM; the HepG2 Reporter assay, HepG2:FAP-CHO-K1 Co-culture EC50 is 0.046 nM; the HepG2 Reporter assay, HepG2 Monoculture EC50 was determined as 0.033 nM; the ICAM1 upregulation in CAFs monoculture assay EC50 stood at 0.044 nM. Moreover, the chemokine (CCL5) induction in RPMI-7951 EC50 turned out to be 0.38 nM.
